Data on three substances can be found in publication PMC7642778.

In assay [1] the target is dithiol glutaredoxin-1 from Clostridium oremlandii (strain OhILAs) (Clostridium oremlandii (strain OhILAs)). The experiment in a line: crystal structure; d-cGrx1 alone; crystals from 0.1 M sodium phosphate/citric acid pH 4.2, 0.2 M lithium sulfate, 20% PEG 1000, 20°C.
The target of assay [2] is monothiol glutaredoxin-1 from Clostridium oremlandii (C16S) (Clostridium oremlandii (strain OhILAs)). The experiment in a line: crystal structure; m-cGrx1–cMsrA complex (β3-swap), formed by incubation with 5 mM methionine sulfoxide at 4°C for 2 h and purified on Superdex 75; crystals from 0.1 M sodium phosphate/citric acid pH 4.2, 0.4 M potassium phosphate (dibasic)/1.6 M sodium phosphate (monobasic), 20°C.

Assay [3] shares this target. The experiment in a line: crystal structure; m-cGrx1 alone (β1-swap), formed in the presence of hydrogen peroxide; crystals from 0.1 M HEPES pH 7.5, 20% PEG 400, 8% PEG 8000, 20°C.

For the substance “dithiol glutaredoxin-1 from Clostridium oremlandii (strain OhILAs) (enzyme)”, the stoichiometry N in assay [1] amounted to 2.

Take “methionine sulfoxide reductase A from Clostridium oremlandii (enzyme)”: the stoichiometry N (cGrx1 per cMsrA (four cGrx1 : two cMsrA)) in assay [2] came out at 2.

Turning to “monothiol glutaredoxin-1 from Clostridium oremlandii (C16S) (enzyme)”, the stoichiometry N in assay [3] and in assay [2] was 4 each time.

The stoichiometry N is the number of molecules, sites or subunits per partner or assembly.
